Among the data in paper PMC5726920 are stoichiometry N values, retold here.

In general, stoichiometry N refers to a count of units in the complex or per binding partner.

Test [1] deals with T1, heart isozyme of murine fatty acid binding protein (mouse), P11404.
T1 chain: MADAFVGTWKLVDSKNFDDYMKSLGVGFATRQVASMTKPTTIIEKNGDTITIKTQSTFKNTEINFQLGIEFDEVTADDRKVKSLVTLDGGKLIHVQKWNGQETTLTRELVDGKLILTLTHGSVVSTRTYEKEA
The experiment in a line: native MS. Conditions: remark: other sources report otherwise.

In test [2] the target is T2, protein deglycase DJ-1, Q99497.
T2 chain: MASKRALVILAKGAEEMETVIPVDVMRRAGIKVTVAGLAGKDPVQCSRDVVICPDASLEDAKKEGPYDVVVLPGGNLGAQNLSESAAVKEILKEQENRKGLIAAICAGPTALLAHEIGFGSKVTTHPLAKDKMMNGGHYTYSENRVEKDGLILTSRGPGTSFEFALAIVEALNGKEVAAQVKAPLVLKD
Description: native MS. Conditions: remark: other sources report otherwise.

B1: heart isozyme of murine fatty acid binding protein, P11404 1-133 (natural protein)
chain: MADAFVGTWKLVDSKNFDDYMKSLGVGFATRQVASMTKPTTIIEKNGDTITIKTQSTFKNTEINFQLGIEFDEVTADDRKVKSLVTLDGGKLIHVQKWNGQETTLTRELVDGKLILTLTHGSVVSTRTYEKEA
Consider B1, for which the stoichiometry N in test [1] stood at 2.

B2: protein deglycase DJ-1, Q99497 1-189 (enzyme)
chain: MASKRALVILAKGAEEMETVIPVDVMRRAGIKVTVAGLAGKDPVQCSRDVVICPDASLEDAKKEGPYDVVVLPGGNLGAQNLSESAAVKEILKEQENRKGLIAAICAGPTALLAHEIGFGSKVTTHPLAKDKMMNGGHYTYSENRVEKDGLILTSRGPGTSFEFALAIVEALNGKEVAAQVKAPLVLKD
For the molecule B2, in test [2], the stoichiometry N was determined as 2.
